Assay [1] has as its target T1, oxidized form of human α-defensin HD5 (HD5 with three intramolecular disulfide bonds) (human, six cysteine residues form three intramolecular disulfide bonds (oxidized form)).
T1 construct: Chemically synthesized mature HD5 (32 amino acids), oxidized and purified by reverse-phase chromatography; confirmed by MALDI-TOF MS; also called ox-HD5; DEFA5
T1 peptide: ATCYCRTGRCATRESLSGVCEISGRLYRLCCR
As to the kind of experiment: indirect ELISA screening, plate coated with 1 µg/ml ox-HD5, hybridoma supernatant. On the procedure: Autoimmune disease mice (C3H/HeJJmsSlc-lpr/lpr available from Japan SLC, Inc.) injected with an adjuvant according to a conventional method were immunized with ox-HD5 by three times of intra-abdominal injection (0.2 mg each time). Later, cells were collected from the spleen of the immunized mice according to a conventional method, and then fused with a mouse myeloma cell line P3U1 with use of 50% polyethylene glycol 1500 (Sigma-Aldrich Co. LLC) to prepare hybridomas. Each hybridoma clone was screened by indirect ELISA, and subcloned four times by a limiting dilution method.
The indirect ELISA was carried out by the following procedures. Wells of a flat-bottomed microtiter plate (Nunc) were coated with 1 μg/ml of ox-HD5 dissolved in Ca²⁺/Mg²⁺-free phosphate buffered saline (PBS), and then incubated overnight at 4° C. After three times of washing with PBS containing 0.1% Tween 20 (PBS-T), culture supernatant from each hybridoma clone was added to the wells, and incubated at 37° C. for 1 hour. […] 100 μL of 3,3′,5,5′-tetramethylbenzidine (TMB) substrate buffer (KPL) was added to each well, then the plate was incubated at 25° C. for 30 minutes, and then absorbance at 405 nm was measured with use of a microplate reader Multiscan FC (Thermo Scientific).
(In general: An ELISA detects its analyte on a solid surface through an enzyme-linked reagent.)

For assay [2], the target named is T2, reduced form of HD5 (HD5 without any intramolecular disulfide bond) (human, no intramolecular disulfide bonds (reduced form)).
T2 construct: Chemically synthesized mature HD5 before the oxidation treatment; also called r-HD5
T2 peptide: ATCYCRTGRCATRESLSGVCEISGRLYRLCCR
As to the kind of experiment: sandwich ELISA, capture 12-1 (1 mg/ml) with detection 39E-7 (0.5 mg/ml), antigen 0 to 60 ng/ml.

Assay [3] deals with T1, oxidized form of human α-defensin HD5 …. As to the kind of experiment: sandwich ELISA, capture 12-1 (1 mg/ml) with detection 39E-7 (0.5 mg/ml).

B1: monoclonal antibody 12-1 (antibody, V domains shown)
VH: QVQLQQSGAELARPGASVKLSCKASGYTFTSYGISWVKQRTGQGLEWIGEIYPRSGNTYYNEKFKGKATLTADKSSSTAYMQLSSLTSEDSAVYFCARDYDGFPYFDYWGQGTTLTVSS
VL: DIVLTQSPASLAVSLGQRATISCRASESVDSYGYSFMHWYQQKPGQPPKLLIYRASNLESGIPARFSGSGSRTDFTLTINPVEADDVATYYCQQSNEDPRTFGGGTKLEIK
notes: constant regions are not; Immobilized on the plate as capture antibody in the sandwich ELISA; also called capture antibody 12-1; anti-ox-HD5 monoclonal antibody according to a)
Take B1: the binding result in assay [1] and in assay [2] was “binds” throughout.

B2: monoclonal antibody 39E-7 (antibody, V domains shown)
VH: EVQLQQSGPELVKPGASVKISCKASGYSFTGSYMNWVKQSPEKSLEWIGEINPSTGGTTHNQKFKAKATLTVDTSSSTFYMQLKSLTSEDSAVYYCARDYAGSYDWYFDVWGAGTTVTVSS
VL: DIKMTQSPSSMYASLGERVTITCKASQDINSYLSWFQQKPGKSPKTLIYRANRLVDGVPSRFSGSGSGQDYSLTISSLEYEDMGIYYCLQYDEFPYTFGGGTKLEII
notes: constant regions are not; also called detection antibody 39E-7; anti-ox-HD5 monoclonal antibody according to b)
Regarding B2, the binding result in assay [3] and in assay [2] was “binds” in each case.

The values above are taken from patent publication US20220357317A1 (NATIONAL UNIVERSITY COMORATION HOKKAIDO UNIVERSITY, published 2022).
